The target of assay [1] is T1, mouse factor H (mouse, UniProt P06909 19-1234). The assay can be described thus: SPR.
Assay [2] deals with T1, mouse factor H. Put plainly: ELISA.
For the next assay, the target named is human factor H (human, UniProt P08603 19-1231). The assay can be described thus: ELISA.
human factor H, sequence (P08603 19-1231): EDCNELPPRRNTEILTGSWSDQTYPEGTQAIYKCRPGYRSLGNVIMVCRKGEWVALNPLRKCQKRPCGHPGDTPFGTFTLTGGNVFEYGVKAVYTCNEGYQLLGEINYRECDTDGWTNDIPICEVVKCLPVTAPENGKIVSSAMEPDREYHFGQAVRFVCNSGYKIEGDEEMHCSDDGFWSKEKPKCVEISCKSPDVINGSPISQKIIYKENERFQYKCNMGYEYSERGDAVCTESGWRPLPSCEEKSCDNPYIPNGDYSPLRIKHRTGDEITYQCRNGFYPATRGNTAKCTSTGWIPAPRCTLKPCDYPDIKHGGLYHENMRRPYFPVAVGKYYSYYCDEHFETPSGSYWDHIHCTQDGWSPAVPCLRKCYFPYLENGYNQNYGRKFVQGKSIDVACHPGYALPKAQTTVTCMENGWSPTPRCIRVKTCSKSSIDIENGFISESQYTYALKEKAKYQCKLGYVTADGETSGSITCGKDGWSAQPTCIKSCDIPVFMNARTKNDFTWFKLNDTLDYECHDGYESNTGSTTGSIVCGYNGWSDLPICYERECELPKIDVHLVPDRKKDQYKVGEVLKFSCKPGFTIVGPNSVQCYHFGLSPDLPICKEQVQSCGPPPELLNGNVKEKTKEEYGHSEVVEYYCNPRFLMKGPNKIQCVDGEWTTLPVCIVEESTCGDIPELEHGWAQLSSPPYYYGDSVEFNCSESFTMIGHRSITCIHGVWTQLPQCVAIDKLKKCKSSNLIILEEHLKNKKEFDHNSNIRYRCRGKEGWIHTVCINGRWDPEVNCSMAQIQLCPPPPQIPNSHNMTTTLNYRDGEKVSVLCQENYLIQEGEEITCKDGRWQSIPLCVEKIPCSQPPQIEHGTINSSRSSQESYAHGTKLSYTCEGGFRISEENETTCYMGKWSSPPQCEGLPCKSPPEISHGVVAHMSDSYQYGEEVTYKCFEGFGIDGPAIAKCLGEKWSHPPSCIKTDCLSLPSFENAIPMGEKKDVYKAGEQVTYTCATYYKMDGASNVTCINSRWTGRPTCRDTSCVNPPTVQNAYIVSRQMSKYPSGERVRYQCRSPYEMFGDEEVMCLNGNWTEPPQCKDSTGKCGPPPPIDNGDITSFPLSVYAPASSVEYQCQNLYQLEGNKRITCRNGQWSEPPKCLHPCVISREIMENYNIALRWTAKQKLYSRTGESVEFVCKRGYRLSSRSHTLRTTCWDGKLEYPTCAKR

T1 sequence (P06909 19-1234): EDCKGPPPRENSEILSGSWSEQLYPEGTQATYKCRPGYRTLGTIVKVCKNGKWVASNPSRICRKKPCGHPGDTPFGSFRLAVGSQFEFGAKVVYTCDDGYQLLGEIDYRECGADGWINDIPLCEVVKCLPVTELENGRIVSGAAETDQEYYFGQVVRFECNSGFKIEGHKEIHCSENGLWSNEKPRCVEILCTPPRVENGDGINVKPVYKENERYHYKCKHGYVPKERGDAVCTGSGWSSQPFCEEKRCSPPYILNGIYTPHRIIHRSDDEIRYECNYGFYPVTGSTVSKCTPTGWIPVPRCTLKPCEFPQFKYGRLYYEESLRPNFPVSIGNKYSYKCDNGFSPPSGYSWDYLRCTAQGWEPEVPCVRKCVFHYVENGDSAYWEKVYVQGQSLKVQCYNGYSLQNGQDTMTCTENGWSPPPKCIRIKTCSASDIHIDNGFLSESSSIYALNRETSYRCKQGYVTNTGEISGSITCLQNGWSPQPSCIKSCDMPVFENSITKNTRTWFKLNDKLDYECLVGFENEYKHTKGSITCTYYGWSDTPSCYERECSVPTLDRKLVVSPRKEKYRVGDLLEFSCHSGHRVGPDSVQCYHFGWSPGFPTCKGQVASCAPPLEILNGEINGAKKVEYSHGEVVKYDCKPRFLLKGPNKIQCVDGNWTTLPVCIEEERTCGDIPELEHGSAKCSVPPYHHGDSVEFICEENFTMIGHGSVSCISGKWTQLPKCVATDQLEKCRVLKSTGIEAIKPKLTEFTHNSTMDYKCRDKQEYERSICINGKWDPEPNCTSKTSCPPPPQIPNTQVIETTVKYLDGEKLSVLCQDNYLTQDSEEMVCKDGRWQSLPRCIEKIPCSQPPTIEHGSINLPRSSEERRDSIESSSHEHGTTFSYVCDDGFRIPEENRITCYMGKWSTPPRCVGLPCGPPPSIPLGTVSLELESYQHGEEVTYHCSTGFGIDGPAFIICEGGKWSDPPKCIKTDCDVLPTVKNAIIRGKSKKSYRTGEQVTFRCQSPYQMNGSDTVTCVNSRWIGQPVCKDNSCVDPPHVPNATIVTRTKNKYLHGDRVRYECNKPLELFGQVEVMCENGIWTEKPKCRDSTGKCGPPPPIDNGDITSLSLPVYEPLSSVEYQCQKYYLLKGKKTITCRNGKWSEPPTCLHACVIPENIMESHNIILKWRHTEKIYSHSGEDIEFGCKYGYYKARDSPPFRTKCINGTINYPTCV

B1: CspZ from B. burgdorferi B31 (CspZB31), untagged recombinant protein (natural protein, Borrelia burgdorferi strain B31)
chain: RLNQRNINELKIFVEKAKYYSIKLDAIYNECTGAYNDIMTYSEGTFSDQSKVNQAISIFKKDNKIVNKFKELEKIIEEYKPMFLSKLIDDFAIELDQAVDNDVSNARHVADSYKKLRKSVVLAYIESFDVISSKFVDSKFVEASKKFVNKAKEFVEENDLIALECIVKTIGDMVNDREINSRSRYNNFYKKEADFLGAAVELEGAYKAIKQTLL
With B1, in the assay with mouse factor H [1], the binding result is “binds”.

B2: histidine-tagged CspZB31 (natural protein, Borrelia burgdorferi strain B31)
chain: B1 chain
As to B2, the binding result with mouse factor H [2] and in the assay with human factor H was “binds” throughout.

The record behind these values is publication doi:10.1101/2022.09.13.507797 (bioRxiv, 2022).
